How the values were obtained:
[1] = biological target: Prp19 (Chlamydomonas reinhardtii (endogenous)); assay: cryo-EM structure; endogenous spliceosomes (C* complex) isolated at 4 °C by the same procedure from the Cdc5L-Flag and the Prp19-Flag knock-in strains: anti-FLAG M2 resin (20 mM HEPES-KOH pH 7.9, 150 mM NaCl, 1.5 mM MgCl2, 4% glycerol), FLAG peptide elution, 10-30% glycerol gradient with 0-0.1% glutaraldehyde; two reconstructions at 2.6 Å without obvious differences, one atomic model
[2] = biological target: Prp19-Flag (Chlamydomonas reinhardtii (endogenous)); assay: as above

Substance	stoichiometry N [1]	stoichiometry N [2]
Prp19 (natural protein)	4	–
Prp19-Flag (natural protein)	–	4

From paper PMC11833078
